{"source": "patent US11078246B2", "about": "“Peptides binding to Bfl-1” (Dana-Farber Cancer Institute, Inc., priority 2015, dated 2021)", "key": {"Bfl-1 [1]": {"molecular_target": "T1, Bfl-1 (Homo sapiens, UniProt Q16548)", "T1 sequence (Q16548 1-175)": "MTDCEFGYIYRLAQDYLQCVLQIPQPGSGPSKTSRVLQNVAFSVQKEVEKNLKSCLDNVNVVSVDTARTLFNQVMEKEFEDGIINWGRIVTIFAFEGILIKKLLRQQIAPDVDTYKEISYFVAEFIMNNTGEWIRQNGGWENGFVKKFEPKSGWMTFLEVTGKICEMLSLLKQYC", "experiment": "Bfl-1:Warhead SAHB conjugation assay", "type": "binding", "conditions": "conjugation with Bfl-1", "method": "Proteins were serially diluted from 1 μM, then combined with FITC-labeled SAHB and polarization measured at 5 min on a microplate reader. We then calculated dissociation constants (KD) by nonlinear regression analysis of dose-response curves. […] Samples were then combined with loading dye, run on a 12% Bis-Tris SDS-PAGE, and stained with Coomassie. The same setup was used for all antiapoptotic proteins tested."}, "BFL-1ΔC [2]": {"molecular_target": "T2, BFL-1ΔC (Homo sapiens, UniProt Q16548)", "T2 construct": "cDNA encoding BFL-1ΔC (aa 1-153) was cloned into the pET19b expression vector; made in house; host or cells: Escherichia coli BL21(DE3) LOBSTR", "T2 sequence (Q16548 1-153)": "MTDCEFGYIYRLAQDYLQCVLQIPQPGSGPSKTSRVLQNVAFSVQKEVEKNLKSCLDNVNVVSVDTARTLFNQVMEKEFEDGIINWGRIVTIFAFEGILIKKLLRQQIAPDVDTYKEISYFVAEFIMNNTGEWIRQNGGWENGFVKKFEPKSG", "experiment": "In vitro covalent conjugation assay (DTT reduction, GSSG oxidation)", "type": "binding", "conditions": "DTT 10 mM then GSSG 12 mM; Coomassie, FITC scan", "method": "(§1) Biolayer Interferometry: Binding analyses of NOXA peptide interactions with BFL-1ΔC were performed on an Octet RED384 system (Fortebio, Menlo Park, Calif.) at 30° C. Super streptavidin (SSA) tips were prewetted in 1× kinetics buffer (PBS, pH 7.4, 0.01% BSA, 0.002% Tween-20) and then conjugated to NOXA SAHBs bearing an N-terminal biotin-PEG linker (10 μg/mL). Excess streptavidin was quenched by incubation with 2 μg/mL biocytin. The tips were then washed with kinetics buffer and soaked in a serial dilution of BFL-IAC for 10 min to measure association rate, followed by a 15 min incubation in kinetics buffer to measure dissociation rate. Dissociation constants were calculated using Octet Data Analysis version 9.0. […] After this incubation in a reducing environment, the mixture was diluted 5-fold into 50 mM Tris pH 8.0, 100 mM NaCl, 12 mM GSSG and incubated in the dark for an additional 30 min at RT. […] The gel was rinsed with water, subjected to FITC scan (Typhoon FLA 9500, GE Healthcare) and then Coomassie staining."}, "Bfl-1 [3]": {"molecular_target": "T1, Bfl-1", "experiment": "Competitive binding assay after pre-forming the Bfl-1:NOXA disulfide bond", "conditions": "Bfl-1:NOXA disulfide bond pre-formed", "method": "The functional impact of the Bfl-1:NOXA disulfide bond formation was evaluated using competitive binding assays and liposomal release assays."}, "Bfl-1 [4]": {"molecular_target": "T1, Bfl-1", "experiment": "Bfl-1:NOXA conjugation assay (disulfide bond, GSSG oxidation)", "type": "binding", "conditions": "non-reducing SDS-PAGE", "method": "Next, the impact of the Cys25 in NOXA was investigated. […] The distance between the sulfurs of the cysteine residues is 3.5 A according to the previously determined crystal structure of the bound proteins (PDB ID 3MQP). […] To examine the impact of Cys25 in NOXA on target interaction, we examined the binding of WT NOXA SAHB and NOXA C25S SAHB to Bfl-1 and to a variety of Bfl-1 cysteine mutants. In vitro conjugation assays were performed in order to verify the formation of the disulfide bond. Global reduction of the protein and the NOXA peptides, followed by the introduction of an oxidant such as GSSG led to production of a disulfide bond, shown as a 3 kDa shift on non-reducing SDS-PAGE (FIG. 4A). […] (FIG. 4A).\nFluorescence polarization assay: The solution-state equilibrium binding assay was used to determine binding affinities of the stapled peptides to the anti-apoptotic proteins. Proteins were serially diluted from 1 μM, then combined with FITC-labeled SAHB and polarization measured at 5 min on a microplate reader. We then calculated dissociation constants (KD) by nonlinear regression analysis of dose-response curves. […] Samples were then run on non-reducing SDS-PAGE, scanned for fluorescence, then stained with Coomassie. […] Plates were read following liposome lysis with 1% Triton X-100 to determine maximal release (F100). Percent ANTS/DPX release was calculated as […]. […]"}, "BCL-XLΔC": {"molecular_target": "T3, BCL-XLΔC (Homo sapiens, UniProt Q07817)", "T3 construct": "MCL-1ΔNΔC (aa 170-327) and BCL-XLΔC (aa 1-212) constructs were cloned into pGEX-4T-1; GST (N, cleaved yes); made in house; host or cells: Escherichia coli BL21(DE3)", "T3 sequence (Q07817 1-212, stated change not applied)": "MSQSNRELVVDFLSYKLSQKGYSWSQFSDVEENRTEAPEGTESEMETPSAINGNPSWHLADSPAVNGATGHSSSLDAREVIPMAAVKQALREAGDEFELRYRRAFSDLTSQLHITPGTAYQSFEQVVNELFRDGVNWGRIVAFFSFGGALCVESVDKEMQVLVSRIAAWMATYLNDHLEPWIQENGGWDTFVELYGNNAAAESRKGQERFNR", "experiment": "In vitro covalent conjugation assay (oxidizing conditions)", "type": "binding"}, "BFL-1ΔC [5]": {"molecular_target": "T4, BFL-1ΔC (Homo sapiens, UniProt Q16548, C19S/C4S)", "T4 construct": "cDNA encoding BFL-1ΔC (aa 1-153) was cloned into the pET19b expression vector; made in house; host or cells: Escherichia coli BL21(DE3) LOBSTR", "T4 sequence (Q16548 1-153 C4S/C19S)": "T2 sequence (Q16548 1-153) with C4S, C19S", "experiment": "In vitro covalent conjugation assay (DTT reduction, GSSG oxidation)", "type": "binding", "conditions": "Coomassie, FITC scan", "method": "as §1"}, "BFL-1ΔC [6]": {"molecular_target": "T5, BFL-1ΔC (Homo sapiens, UniProt Q16548, C19S/C4S/C55S)", "T5 construct": "cDNA encoding BFL-1ΔC (aa 1-153) was cloned into the pET19b expression vector; made in house; host or cells: Escherichia coli BL21(DE3) LOBSTR", "T5 sequence (Q16548 1-153 C4S/C19S/C55S)": "T2 sequence (Q16548 1-153) with C4S, C19S, C55S", "experiment": "In vitro covalent conjugation assay (DTT reduction, GSSG oxidation)", "type": "binding", "conditions": "Coomassie, FITC scan", "method": "as §1"}, "Bfl-1 [7]": {"molecular_target": "T1, Bfl-1", "experiment": "Liposomal release assay (Bfl-1 inhibition of BAX activation)", "type": "biochemical", "method": "Fluorescence polarization assay: The solution-state equilibrium binding assay was used to determine binding affinities of the stapled peptides to the anti-apoptotic proteins. Proteins were serially diluted from 1 μM, then combined with FITC-labeled SAHB and polarization measured at 5 min on a microplate reader. We then calculated dissociation constants (KD) by nonlinear regression analysis of dose-response curves. Bfl-1:NOXA conjugation assay: The conjugation assay was developed to test for disulfide bond formation in a non-reducing environment, 3:1 FITC-stapled peptide:protein molar ratio was combined in the presence of DTT, then diluted and incubated with 1.2 molar excess GSSG. Samples were then run on non-reducing SDS-PAGE, scanned for fluorescence, then stained with Coomassie. […] ANTS release and dequenching due to DPX dissociation (F) was measured over a period of 120 min with an M1000 Infinite plate reader (Tecan) with excitation and emission wavelengths of 355 nm and 520 nm, respectively. Plates were read following liposome lysis with 1% Triton X-100 to determine maximal release (F100). Percent ANTS/DPX release was calculated as […]. […]"}, "MCL-1ΔNΔC": {"molecular_target": "T6, MCL-1ΔNΔC (Homo sapiens, UniProt Q07820)", "T6 construct": "MCL-1ΔNΔC (aa 170-327) and BCL-XLΔC (aa 1-212) constructs were cloned into pGEX-4T-1; GST (N, cleaved yes); made in house; host or cells: Escherichia coli BL21(DE3)", "T6 sequence (Q07820 170-327, stated change not applied)": "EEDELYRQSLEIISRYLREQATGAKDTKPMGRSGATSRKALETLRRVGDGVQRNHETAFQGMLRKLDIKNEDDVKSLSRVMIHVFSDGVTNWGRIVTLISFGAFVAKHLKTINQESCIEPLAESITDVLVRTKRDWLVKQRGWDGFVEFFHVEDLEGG", "experiment": "In vitro covalent conjugation assay (oxidizing conditions)", "type": "binding"}, "GST-MCL-1ΔNΔC": {"molecular_target": "T7, GST-MCL-1ΔNΔC (Homo sapiens, UniProt Q07820)", "T7 construct": "MCL-1ΔNΔC (aa 170-327) and BCL-XLΔC (aa 1-212) constructs were cloned into pGEX-4T-1; made in house; host or cells: Escherichia coli BL21(DE3)", "T7 sequence (Q07820 170-327, stated change not applied)": "as above", "experiment": "Streptavidin pull-down from anti-apoptotic protein mixture", "type": "binding", "conditions": "1:1:1:1 mixture, 1 μM each, biotinylated SAHB", "method": "Streptavidin Pull-down: Recombinant His-BFL-1ΔC, BCL-XLΔC (tagless) and GST-MCL-1ΔNΔC (1 μM each) were combined and reduced with 3 mM DTT in PBS for 30 min at RT, and then incubated with 1 μM biotinylated SAHBA, SAHBA-3 or vehicle for 4 h at RT. The mixtures were then combined with PBS-washed high-capacity SA agarose (Thermo Fisher Pierce) and incubated with rotation for 2 h at RT. The beads were centrifuged at 3000 rpm, washed twice with NP-40 lysis buffer (1% NP40, 50 mM Tris pH 8.0, 100 mM NaCl, 2.5 mM MgCl2), once with PBS, and then bound protein eluted by boiling in 10% SDS containing 10 mg/mL biotin. Inputs (10%) and eluates were electrophoresed on a 12% Bis-Tris gel and then subjected to silver stain and imaging."}}, "note": "Residue numbers refer to the chain shown, from its start. Positions of bridges follow the written chain, without caps; N, C: chain ends. Non-standard residues stand in square brackets, D forms with d. No end group written: not given here. S5 = C=CCCC[C@](C)(N)C(=O)O"}
{"molecule": "O=C(O)[C@H]1CCCCN1", "note": "[D-homoproline]", "values": [{"measurement": "covalent binding efficiency (comparative)", "setting": "Bfl-1 [1]", "result": "less efficient"}]}
{"molecule": "NOXA SAHBA C25S: stapled NOXA BH3 peptide with C25S substitution; SEQ ID NO:13 (AELEVESATQLR[S5]FGD[S5]LNFRQKLL; staple 13-17)", "values": [{"measurement": "molecular weight shift (disulfide adduct) of wild-type BFL-1ΔC", "setting": "BFL-1ΔC [2]", "result": "not"}, {"measurement": "availability of the Bfl-1 binding pocket to another FITC BH3 domain", "setting": "Bfl-1 [3]", "result": "abrogated these inhibitory effects"}]}
{"molecule": "CN(C)C/C=C/C(=O)O", "note": "[trans-4-dimethylaminocrotonic acid]", "values": [{"measurement": "covalent binding efficiency (comparative)", "setting": "Bfl-1 [1]", "result": "less efficient"}]}
{"molecule": "O=C(O)[C@@H]1CCCCN1", "note": "[L-homoproline]", "values": [{"measurement": "covalent binding efficiency (comparative)", "setting": "Bfl-1 [1]", "result": "less efficient"}]}
{"molecule": "NOXA SAHBA: stapled NOXA BH3 (aa 19-43), i, i+4 hydrocarbon staple replacing R31 and K35, native C25; SEQ ID NO:9 (AELEVECATQLR[S5]FGD[S5]LNFRQKLL; staple 13-17)", "values": [{"measurement": "covalent (disulfide) bond formation with Bfl-1, BCL-XL and MCL-1", "setting": "Bfl-1 [4]", "result": "only Bfl-1 forms a covalent bond"}, {"measurement": "molecular weight shift or FITC labeling of BCL-XLΔC", "setting": "BCL-XLΔC", "result": "no molecular weight shift or FITC labeling"}, {"measurement": "disulfide adduct with BFL-1ΔC C4S/C19S (only C55 present)", "setting": "BFL-1ΔC [5]", "result": "molecular weight shift"}, {"measurement": "molecular weight shift (disulfide adduct) of wild-type BFL-1ΔC", "setting": "BFL-1ΔC [2]", "result": "shift in the molecular weight"}, {"measurement": "disulfide adduct with BFL-1ΔC C4S/C19S/C55S (lacks C55)", "setting": "BFL-1ΔC [6]", "result": "no adduct"}, {"measurement": "anti-apoptotic effects of Bfl-1 on BAX", "setting": "Bfl-1 [7]; Bfl-1:NOXA disulfide bond formed prior to assay", "result": "almost completely abrogates the effects of Bfl-1"}, {"measurement": "anti-apoptotic effects of Bfl-1 on BAX", "setting": "Bfl-1 [7]; peptide added concurrently with Bfl-1", "result": "somewhat inhibited"}, {"measurement": "molecular weight shift or FITC labeling of MCL-1ΔNΔC", "setting": "MCL-1ΔNΔC", "result": "no molecular weight shift or FITC labeling"}, {"measurement": "availability of the Bfl-1 binding pocket to another FITC BH3 domain", "setting": "Bfl-1 [3]", "result": "significantly decreased the availability of the Bfl-1 binding pocket"}, {"measurement": "MCL-1ΔNΔC engagement in SA pull-down", "setting": "GST-MCL-1ΔNΔC", "result": "prominent non-covalent capture"}]}
